The RNAGym collection of RNA variant scans (doi:10.7554/elife.80360)

B1: Hammerhead Ribozyme (parent)
chain: ACCGGAUGUGCUUUCCGGUCUGAUGAGUCCGUGAGGACGAAACAG

Variants of: B1
Experiment: self-cleavage, relative activity (ratio to wild type); higher = more cleavage; co-transcriptional

| Variant | self-cleavage |
| --- | --- |
| ACCGGAUGUGCUUUCCAGUCUGAUGUGUCCGUGAGGACGAAACAG [G17A A26U] | 0.447 |
| ACCGGAUGUGCUUUCCGGUCUGAUGAGUCCGUGAGGACUAAUCAG [G39U A42U] | 0.39 |
| ACCGGAUGUGCUUUCCGGUCAGAUGAGUCCGUAAGGACGAAACAG [U21A G33A] | 0.808 |
| AACGGAUUUGCUUUCCGGUCUGAUGAGUCCGUGAGGACGAAACAG [C2A G8U] | 0.794 |
| ACCGGAUGUGCAUUCCGGUCUGAUUAGUCCGUGAGGACGAAACAG [U12A G25U] | 0.331 |
| ACCGGAUGUGCUUUCCGGUCUGAUGAGUCCGUGAGAACGAAACGG [G36A A44G] | 0.75 |
| ACCGGAUGUGCUUCCCAGUCUGAUGAGUCCGUGAGGACGAAACAG [U14C G17A] | 0.494 |
| ACCGGAUGUGCUUUGCGGUCUGAUGAGUCCGUGAGGCCGAAACAG [C15G A37C] | 0.364 |
| ACCGGAUGUGCUUUCCGGUCUGGUGAGUCCGUGAGGACGAAACCG [A23G A44C] | 0.353 |
| ACCGGAUGUGCUUUCCGGUCUGCUGAGUCCGUGAGGGCGAAACAG [A23C A37G] | 0.237 |
| ACCGGAUGUGCUUUCGGGUCAGAUGAGUCCGUGAGGACGAAACAG [C16G U21A] | 0.349 |
| ACCGGAAGUGCUUUCCGGUCCGAUGAGUCCGUGAGGACGAAACAG [U7A U21C] | 0.628 |
| ACCGGAUGUGCUUUCCGGUCUGAUACGUCCGUGAGGACGAAACAG [G25A A26C] | 0.339 |
| ACCGGAUGUGCUUUCCAGUCUGAUGAGUCCAUGAGGACGAAACAG [G17A G31A] | 0.875 |
| ACCGGAUGUGCUUUCCGGUGUGAUGAGUCCGUCAGGACGAAACAG [C20G G33C] | 0.327 |
| ACCGGAUGUGCUUUCCGGCCUGAUGAGUUCGUGAGGACGAAACAG [U19C C29U] | 0.491 |
| ACCGGAUGUGCUUUCCGGUCUGAUGAGUCCGCGAGGACGAAACAC [U32C G45C] | 0.425 |
| ACCUGAGGUGCUUUCCGGUCUGAUGAGUCCGUGAGGACGAAACAG [G4U U7G] | 0.381 |
| ACCGGAUGUGCUUUCCAGUCUGAUGAGUCCGUUAGGACGAAACAG [G17A G33U] | 0.751 |

| Variant | self-cleavage |
| --- | --- |
| AACGGAUGUGCUUUCCGGUCUGAUGAGUCCGUGAGGACUAAACAG [C2A G39U] | 0.327 |
| ACCGGAUGUGCUUUCCGGUCUGAUGAGUCUGUGAGGACGAAGCAG [C30U A42G] | 0.24 |
| ACCGGAUGUGCUUUCCGGUCGGAUGAGUCCGUGAGGACGAAACAU [U21G G45U] | 0.281 |
| ACCGGAUGUGCUUUCCGGUCUGAUGAGUGCGUGAGGACGAAACAU [C29G G45U] | 0.458 |
| ACCGGAUGUGGUUUCCGGUCUGAUGAGUCCGUGAGAACGAAACAG [C11G G36A] | 0.763 |
| ACGGGAUGUGCUUUCGGGUCUGAUGAGUCCGUGAGGACGAAACAG [C3G C16G] | 0.258 |
| ACCGGACGGGCUUUCCGGUCUGAUGAGUCCGUGAGGACGAAACAG [U7C U9G] | 0.667 |
| ACCGGAUGUGCUUUCCGGUCUGAUGAGUCCGUGGGGACGUAACAG [A34G A40U] | 0.334 |
| ACGGGAUGUGCAUUCCGGUCUGAUGAGUCCGUGAGGACGAAACAG [C3G U12A] | 0.352 |
| ACCGGAUUUGCUUUCCAGUCUGAUGAGUCCGUGAGGACGAAACAG [G8U G17A] | 0.652 |
| ACCGGAUGUGCUUUCCGGUCUUAUGAGUCCGUGAGGACGAAACGG [G22U A44G] | 0.711 |
| ACCGGAUGUGCUUUCCGGUCUGAUGAGUCCCCGAGGACGAAACAG [G31C U32C] | 0.773 |
| ACCGGAUGUGCUUUCCGGUCUGAUGAGUCCCGGAGGACGAAACAG [G31C U32G] | 0.683 |
| ACCGGAUGUGCUUUCCGGUCUGAUGCGUCCGUGAGGACGAAACAG [A26C] | 0.7 |
| ACCGGAUAUGCUUUCCUGUCUGAUGAGUCCGUGAGGACGAAACAG [G8A G17U] | 0.837 |
| ACCCGAUGUGCUGUCCGGUCUGAUGAGUCCGUGAGGACGAAACAG [G4C U13G] | 0.962 |
| ACCAGAUGUGCUUUCCGGUCUGAGGAGUCCGUGAGGACGAAACAG [G4A U24G] | 0.546 |
| ACCGGAUGUGCUUUACGGUCUGAUGAGUCAGUGAGGACGAAACAG [C15A C30A] | 0.782 |
| ACCUGAUGUGCUUUCCGGUCUGAUGAGUCCGUGAGGAUGAAACAG [G4U C38U] | 0.315 |

| Variant | self-cleavage |
| --- | --- |
| ACAGGAUGUUCUUUCCGGUCUGAUGAGUCCGUGAGGACGAAACAG [C3A G10U] | 0.921 |
| ACCGGAUGAGCGUUCCGGUCUGAUGAGUCCGUGAGGACGAAACAG [U9A U12G] | 0.802 |
| ACCGGACGUGCUUCCCGGUCUGAUGAGUCCGUGAGGACGAAACAG [U7C U14C] | 0.585 |
| ACCGGAUGUGCUUUGCGGUCUGAUGUGUCCGUGAGGACGAAACAG [C15G A26U] | 0.516 |
| ACCGGAGGUGCUUUCCGGUCUGAGGAGUCCGUGAGGACGAAACAG [U7G U24G] | 1.92 |
| ACCGUAUGUGCUUUCCGGUCUGAUGAGUACGUGAGGACGAAACAG [G5U C29A] | 0.402 |
| GCCGGAUGUGCUUUCCGGUCUGAUGAGUCCGUGAGGACGUAACAG [A1G A40U] | 0.458 |
| ACCGGAUGUGCUAUCCGGUCUCAUGAGUCCGUGAGGACGAAACAG [U13A G22C] | 0.312 |
| ACCGGAUGUGCUUUCCGGUCUGAUGAGUCCGUGAGGGCUAAACAG [A37G G39U] | 0.307 |
| ACCGGAUUUGCUUUCCGGUCUGAUGAGUCCGUGAAGACGAAACAG [G8U G35A] | 0.811 |
| ACCGGAUGUGCUUUCCGGUCUGAUGAGUCCGUGAGGACGAUACAU [A41U G45U] | 0.359 |
| ACCGCAUGUGCUUUCCGGUCUGAUGAGUCAGUGAGGACGAAACAG [G5C C30A] | 0.623 |
| ACCGGAUGUGGUUUCCGGUCUGAUGAGUCCGUGAGGACGAAACAC [C11G G45C] | 0.962 |
| ACCGGAUGUGCUUUCCGGUCUGAUUAGUCCGUGAGGACGAAGCAG [G25U A42G] | 0.246 |
| ACCGGAUGUGCUUUCCGGUCAGUUGAGUCCGUGAGGACGAAACAG [U21A A23U] | 0.34 |
| ACCGGAUGUGAUUUCCGGUCUGAUGAGUCCGUGAGGACGAAAGAG [C11A C43G] | 0.353 |
| ACCGGAUGUGCUUUCCGGUCUGAUAAGUCCGUGAGGAAGAAACAG [G25A C38A] | 0.379 |
| ACCGGAUGUGCUGUCCGGUCUGAUGAGUCCGUGAGGACGAAUCAG [U13G A42U] | 0.333 |
| ACCUGAUGUGCUUUCCGGUCUGAUGUGUCCGUGAGGACGAAACAG [G4U A26U] | 0.378 |
